# System: Escherichia coli TOP10
# Assay: shrunken log2 fold change of peptide-encoding DNA abundance (4.5 h post-induction vs induction); higher = less antimicrobial activity (less host growth inhibition)
# Settings: time post-induction: 4.5 h; library: site-saturation at positions 5, 18, 19, 20
# 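Further: peptides expressed intracellularly from a pBAD plasmid library in pooled LB shake-flask culture, induced with 0.3% L-arabinose, DNA abundance read by NGS, three biological replicates, DESeq2 with apeglm shrinkage.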
row,Sequence,shrunken log2 fold change
1,RRIRMRPPRLPRPRPRPPDCPRP,0.865
2,RRIRQRPPRLPRPRPRPQGSPRP,0.0165
3,RRIRDRPPRLPRPRPRPRKKPRP,0.0136
4,RRIRDRPPRLPRPRPRPMFIPRP,-0.0363
5,RRIRLRPPRLPRPRPRPECKPRP,0.0726
6,RRIRNRPPRLPRPRPRPKPYPRP,-0.342
7,RRIRIRPPRLPRPRPRPLDTPRP,-0.142
8,RRIRSRPPRLPRPRPRPRVAPRP,0.179
9,RRIRFRPPRLPRPRPRPIQEPRP,-0.541
10,RRIRFRPPRLPRPRPRPVSSPRP,-0.371
11,RRIRYRPPRLPRPRPRPCQGPRP,-0.0126
12,RRIRVRPPRLPRPRPRPGVWPRP,1.88
13,RRIRFRPPRLPRPRPRPFTVPRP,-0.246
14,RRIRWRPPRLPRPRPRPARQPRP,0.0282
15,RRIRYRPPRLPRPRPRPEAQPRP,0.151
16,RRIRVRPPRLPRPRPRPRMFPRP,-0.0394
17,RRIRPRPPRLPRPRPRPVSDPRP,-0.0922
18,RRIRARPPRLPRPRPRPAHLPRP,0.271
19,RRIRGRPPRLPRPRPRPCRWPRP,0.611
20,RRIRERPPRLPRPRPRPISLPRP,-0.28
21,RRIRGRPPRLPRPRPRPWAPPRP,0.452
22,RRIRKRPPRLPRPRPRPKWNPRP,0.392
23,RRIRKRPPRLPRPRPRPRMMPRP,0.492
24,RRIRTRPPRLPRPRPRPYKVPRP,-1.32
25,RRIRSRPPRLPRPRPRPYSDPRP,-0.0368

row,Sequence,shrunken log2 fold change
1,RRIRHRPPRLPRPRPRPAMSPRP,0.0912
2,RRIRTRPPRLPRPRPRPTLQPRP,0.336
3,RRIRKRPPRLPRPRPRPVQLPRP,0.349
4,RRIRIRPPRLPRPRPRPGIKPRP,-0.0876
5,RRIRMRPPRLPRPRPRPPVYPRP,0.167
6,RRIRVRPPRLPRPRPRPSRCPRP,-0.101
7,RRIRSRPPRLPRPRPRPFGDPRP,-0.0872
8,RRIRSRPPRLPRPRPRPLWHPRP,-0.289
9,RRIRPRPPRLPRPRPRPQWFPRP,-0.0872
10,RRIRRRPPRLPRPRPRPHSPPRP,0.252
11,RRIRLRPPRLPRPRPRPAHCPRP,0.0914
12,RRIRPRPPRLPRPRPRPMPEPRP,-0.0242
13,RRIRKRPPRLPRPRPRPWRTPRP,0.379
14,RRIRRRPPRLPRPRPRPYAHPRP,0.082
15,RRIRFRPPRLPRPRPRPFFMPRP,-0.153
16,RRIRYRPPRLPRPRPRPDVEPRP,-0.00174
17,RRIRRRPPRLPRPRPRPHLLPRP,-0.0838
18,RRIRIRPPRLPRPRPRPYTLPRP,-0.478
19,RRIRIRPPRLPRPRPRPHVRPRP,0.031
20,RRIRCRPPRLPRPRPRPQKIPRP,-0.252
21,RRIRFRPPRLPRPRPRPVNCPRP,-0.15
22,RRIRTRPPRLPRPRPRPQEVPRP,-0.0102
23,RRIRVRPPRLPRPRPRPMGGPRP,0.062
24,RRIRDRPPRLPRPRPRPFYMPRP,-0.735
25,RRIRARPPRLPRPRPRPYQWPRP,-0.0841

row,Sequence,shrunken log2 fold change
1,RRIRFRPPRLPRPRPRPVFQPRP,0.071
2,RRIRVRPPRLPRPRPRPTIDPRP,-0.0691
3,RRIRVRPPRLPRPRPRPLFSPRP,-0.261
4,RRIRARPPRLPRPRPRPDMAPRP,0.265
5,RRIRCRPPRLPRPRPRPKFNPRP,-0.477
6,RRIRHRPPRLPRPRPRPCSSPRP,0.032
7,RRIRGRPPRLPRPRPRPGHFPRP,-0.0383
8,RRIRPRPPRLPRPRPRPVTGPRP,-0.0902
9,RRIRMRPPRLPRPRPRPQHYPRP,-0.116
10,RRIRRRPPRLPRPRPRPSSHPRP,-0.0976
11,RRIRQRPPRLPRPRPRPQYRPRP,0.0114
12,RRIRTRPPRLPRPRPRPNKPPRP,-0.0031
13,RRIRWRPPRLPRPRPRPMQSPRP,0.185
14,RRIRDRPPRLPRPRPRPYTLPRP,-0.153
15,RRIRRRPPRLPRPRPRPHPKPRP,0.474
16,RRIRTRPPRLPRPRPRPAAWPRP,0.754
17,RRIRERPPRLPRPRPRPIWMPRP,0.0239
18,RRIRKRPPRLPRPRPRPWWAPRP,-0.287
19,RRIRFRPPRLPRPRPRPGTTPRP,-0.032
20,RRIRYRPPRLPRPRPRPHHRPRP,-0.306
21,RRIRTRPPRLPRPRPRPAEMPRP,-0.253
22,RRIRMRPPRLPRPRPRPKKEPRP,-0.0374
23,RRIRKRPPRLPRPRPRPDSWPRP,0.0425
24,RRIRLRPPRLPRPRPRPKLVPRP,-0.0181
25,RRIRSRPPRLPRPRPRPHPDPRP,-0.0132

row,Sequence,shrunken log2 fold change
1,RRIRIRPPRLPRPRPRPSMWPRP,-0.178
2,RRIRYRPPRLPRPRPRPGFLPRP,-0.454
3,RRIRFRPPRLPRPRPRPGVLPRP,0.0194
4,RRIRFRPPRLPRPRPRPEQAPRP,-0.0421
5,RRIRSRPPRLPRPRPRPWLTPRP,-0.0675
6,RRIRKRPPRLPRPRPRPLTMPRP,0.185
7,RRIRWRPPRLPRPRPRPYYGPRP,-0.0686
8,RRIRGRPPRLPRPRPRPNVNPRP,0.371
9,RRIRERPPRLPRPRPRPIEHPRP,-0.00973
10,RRIRKRPPRLPRPRPRPIYFPRP,0.216
11,RRIRRRPPRLPRPRPRPKLIPRP,-0.395
12,RRIRHRPPRLPRPRPRPPMKPRP,-0.278
13,RRIRHRPPRLPRPRPRPDKIPRP,-0.042
14,RRIRARPPRLPRPRPRPWSHPRP,-0.186
15,RRIRMRPPRLPRPRPRPWADPRP,-0.108
16,RRIRLRPPRLPRPRPRPMATPRP,-0.187
17,RRIRHRPPRLPRPRPRPVFMPRP,-0.311
18,RRIRFRPPRLPRPRPRPKVIPRP,-0.212
19,RRIRPRPPRLPRPRPRPQGEPRP,0.208
20,RRIRKRPPRLPRPRPRPHVIPRP,-0.257
21,RRIRERPPRLPRPRPRPMPSPRP,0.156
22,RRIRYRPPRLPRPRPRPSTRPRP,-0.367
23,RRIRFRPPRLPRPRPRPFDLPRP,-0.352
24,RRIRFRPPRLPRPRPRPCYWPRP,-0.0974
25,RRIRMRPPRLPRPRPRPFSIPRP,-0.11

row,Sequence,shrunken log2 fold change
1,RRIRKRPPRLPRPRPRPFEWPRP,-0.0618
2,RRIRLRPPRLPRPRPRPIMPPRP,-0.459
3,RRIRVRPPRLPRPRPRPKYFPRP,-0.239
4,RRIRGRPPRLPRPRPRPRTRPRP,1.01
5,RRIRERPPRLPRPRPRPQSGPRP,0.00436
6,RRIRARPPRLPRPRPRPRWMPRP,0.451
7,RRIRPRPPRLPRPRPRPIPVPRP,-0.402
8,RRIRCRPPRLPRPRPRPPSSPRP,-0.0857
9,RRIRMRPPRLPRPRPRPCMGPRP,-0.28
10,RRIRVRPPRLPRPRPRPRNCPRP,-0.129
11,RRIRPRPPRLPRPRPRPRQAPRP,0.0176
12,RRIRIRPPRLPRPRPRPMQVPRP,0.00763
13,RRIRCRPPRLPRPRPRPYVKPRP,-0.647
14,RRIRKRPPRLPRPRPRPHAAPRP,-0.0457
15,RRIRCRPPRLPRPRPRPFRPPRP,-0.515
16,RRIRTRPPRLPRPRPRPKCHPRP,-0.0989
17,RRIRGRPPRLPRPRPRPLLCPRP,1.17
18,RRIRWRPPRLPRPRPRPDPIPRP,-0.242
19,RRIRNRPPRLPRPRPRPQMRPRP,0.308
20,RRIRRRPPRLPRPRPRPVGTPRP,0.018
21,RRIRDRPPRLPRPRPRPTCMPRP,-0.0434
22,RRIRTRPPRLPRPRPRPLWTPRP,-0.0962
23,RRIRNRPPRLPRPRPRPDNYPRP,-0.341
24,RRIRSRPPRLPRPRPRPSCDPRP,-0.444
25,RRIRKRPPRLPRPRPRPNLVPRP,-0.0428

row,Sequence,shrunken log2 fold change
1,RRIRLRPPRLPRPRPRPSMQPRP,-0.205
2,RRIRQRPPRLPRPRPRPAVKPRP,-0.00195
3,RRIRDRPPRLPRPRPRPAVHPRP,0.16
4,RRIRERPPRLPRPRPRPESEPRP,0.0931
5,RRIRSRPPRLPRPRPRPEHPPRP,0.166
6,RRIRHRPPRLPRPRPRPHWDPRP,-0.557
7,RRIRTRPPRLPRPRPRPCMFPRP,-0.515
8,RRIRNRPPRLPRPRPRPIDCPRP,-0.248
9,RRIRMRPPRLPRPRPRPTLYPRP,0.16
10,RRIRDRPPRLPRPRPRPRYPPRP,-0.0457
11,RRIRLRPPRLPRPRPRPCLLPRP,-0.421
12,RRIRTRPPRLPRPRPRPMCIPRP,-0.649
13,RRIRLRPPRLPRPRPRPKHWPRP,0.31
14,RRIRRRPPRLPRPRPRPRKWPRP,0.319
15,RRIRWRPPRLPRPRPRPCKFPRP,-0.24
16,RRIRERPPRLPRPRPRPPRRPRP,0.408
17,RRIRCRPPRLPRPRPRPQLVPRP,0.569
18,RRIRHRPPRLPRPRPRPRYYPRP,-0.332
19,RRIRWRPPRLPRPRPRPDMAPRP,0.204
20,RRIRVRPPRLPRPRPRPLCMPRP,-0.123
21,RRIRMRPPRLPRPRPRPLLFPRP,0.908
22,RRIRERPPRLPRPRPRPTKGPRP,-0.184
23,RRIRYRPPRLPRPRPRPCNLPRP,-0.958
24,RRIRTRPPRLPRPRPRPPRSPRP,0.529
25,RRIRARPPRLPRPRPRPGCTPRP,0.552
